Read-outs that look alike come from different tables or passages of the source.
Assays:
[1] = target: T1, A/South Carolina/1/1918 (H1N1) hemagglutinin ectodomain (Influenza A virus A/South …); assay: yeast surface display titration
[2] = target: T1, A/South Carolina/1/1918 (H1N1) …; assay: yeast surface display titration; remark: listed apart in the source

Row | Binder | binding result [1] | binding result [2]
1 | HB80.3_s4_E82 (designed binder) MASTRGSGRPWKFSENVAFEIALSFTNKDTPDRWAKVARYVRGRTPEEVKKHYE | binds | 
2 | HB80.3_s4_E94 (designed binder) ASTRGSGRPWKFSENVAFELALYFTNKDTPDRWAKVARYVKGRTPEEVKKHYE | binds | 
3 | HB36.4_s4_E11 (designed binder) MSNAMDGQQLNRLLLEWIGAWDPFGLGKDAYDVEADAVLKAVYETNSAFDLAMRIHWIYNFAFKRKIPFVHAQKLARRLLELKQAASSPLP |  | binds
